Usually Kd stands for the constant that tells how readily two partners part at equilibrium. Low values mean higher affinity, high ones lower affinity.

This experiment concerns the target human thrombin (human, UniProt P00734 328-622). The experiment is described as follows: equilibrium titration of thrombin (20 nM) with thrombomodulin in solution, read by the change in fluorescence of the thrombin inhibitor DAPA, fitted by nonlinear regression. The protocol: A solution containing thrombin (20 nM), thrombomodulin (1.54 μM), and DAPA (20 nM, dansylarginine N-3-(ethyl-1,5-pentanediyl)amide, a fluorescent, reversible thrombin inhibitor) in 0.02 M Tris-HCl, 0.15 M NaCl, 5.0 mM CaCl₂, 0.01% Tween 80, pH 7.4, was added in small successive aliquots to an otherwise identical solution that lacked thrombomodulin. The additions were performed in a cuvette fitted with a magnetic stirrer in the sample compartment of a Perkin-Elmer model LS50B spectrofluorimeter. Intensity values were continuously recorded with excitation and emission wavelengths of 280 and 545 nm, respectively. A 430-nm cut-off filter was used in the emission beam. The intensity of fluorescence, I, was assumed to be the sum of intensities from thrombin-DAPA (T·D) and thrombin-thrombomodulin-DAPA (T·TM·D). That is, I=i₁·[T·D]+i₂·[T·TM·D], where i₁ and i₂ are the coefficients of fluorescence for T·D and T·TM·D (since excitation was at 280 nm, the emission from free DAPA was negligible).
Therefore, with KTM defined as the dissociation constant for the thrombin-thrombomodulin interaction, [T][TM]=KTM[T·TM]; [T·D][TM]=KTM[T·TM·D]; and ([T]+[T·D])·[TM]=KTM([T·TM]+[T·TM·D]). The last expression is identical to f·[TM]=KTM·b. Since f=1−b and [TM]=[TM]₀−b[T]₀, where [TM]₀ is the total thrombomodulin concentration, the following equation is obtained: (1−b)([TM]₀−b·[T]₀)=KTM·b. […]

B1: Solulin (recombinant human soluble thrombomodulin) (receptor)
chain: EPQPGGSQCVEHDCFALYPGPATFLNASQICDGLRGHLMTVRSSVAADVISLLLNGDGGVGRRRLWIGLQLPPGCGDPKRLGPLRGFQWVTGDNNTSYSRWARLDLNGAPLCGPLCVAVSAAEATVPSEPIWEEQQCEVKADGFLCEFHFPATCRPLAVEPGAAAAAVSITYGTPFAARGADFQALPVGSSAAVAPLGLQLMCTAPPGAVQGHWAREAPGAWDCSVENGGCEHACNAIPGAPRCQCPAGAALQADGRSCTASATQSCNDLCEHFCVPNPDQPGSYSCMCETGYRLAADQHRCEDVDDCILEPSPCPQRCVNTQGGFECHCYPNYDLVDGECVEPVDPCFRANCEYQCQPLNQTSYLCVCAEGFAPIPHEPHRCQLFCNQTACPADCDPNTQASCECPEGYILDDGFICTDIDECENGGFCSGVCHNLPGTFECICGPDSALAGQIGTDCDSGKVDGGDSGAGEPPPSPTPGSTLTPP
notes: Obtained from PAION Deutschland GmbH; also called sTM; recombinant soluble thrombomodulin
Molecule B1 registered a Kd of 23 nM.

(Values after US20140256640A1 (PAION DEUTSCHLAND, published 2014).)
